Experimental data as given in patent US20130089516A1.
“And” between values parts separate entries of the source, which are not always exact repeats. Equal entries are not always repeated.

Legend:
[1] = molecular target: recombinant human IL-2 (Peprotech) (human) (UniProt P60568); test: modified phage ELISA, human IL-2 coated; 2 µg/ml MQ1-17H12 added, then scFv-2 phage (competitor)
[2] = molecular target: mouse IL-2/IL-2Rα fusion proteins (2× and 4× linker lengths); test: sandwich ELISA (JES6-1A12 capture, JES5H4 detection by the general methods), PSA-treated against buffer-treated fusion protein
[3] = molecular target: IL-2 portion of the mouse IL-2/IL-2Rα fusion proteins (mouse) (UniProt P04351); test: cell-based or functional assay
Sequence of IL-2 portion of the mouse IL-2/IL-2Rα fusion proteins (mouse) (P04351 21-169 limits assumed): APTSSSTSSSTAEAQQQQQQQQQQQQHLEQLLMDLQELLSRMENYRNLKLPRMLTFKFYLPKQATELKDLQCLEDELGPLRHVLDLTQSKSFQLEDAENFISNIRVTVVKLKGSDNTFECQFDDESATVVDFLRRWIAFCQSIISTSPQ

Sequence of recombinant human IL-2 (Peprotech) (human) (P60568 21-153 limits assumed): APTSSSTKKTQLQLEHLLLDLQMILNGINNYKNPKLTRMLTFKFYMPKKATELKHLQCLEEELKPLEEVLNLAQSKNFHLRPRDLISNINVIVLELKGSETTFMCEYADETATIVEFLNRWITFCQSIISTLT

Substance: neutralizing anti-human IL-2 monoclonal antibody MQ1-17H12 (eBioscience)
- percent blocking of scFv-2 phage binding [1]: 70%

Substance: rat anti-mouse IL-2 monoclonal antibody JES6-1A12 (BD Pharmingen)
- fold increase in the apparent amount of IL-2 detected after PSA cleavage [2]: 2 fold and 4 fold

Substance: IL-2Rα portion of the mouse IL-2/IL-2Rα fusion proteins (soluble form of the alpha chain of the IL-2 receptor) (from UniProt P01590 22-236)
- attenuation of IL-2 biologic activity in the intact uncleaved fusion protein against the equivalent amount of free IL-2, CTLL-2 bioassay [3]: > 60 fold
- increase of biologically active IL-2 after PSA cleavage of the fusion protein with the 2× linker, CTLL-2 / MTT assay [3]: 3.5 fold
- increase of biologically active IL-2 after PSA cleavage of the fusion protein with the 4× linker, CTLL-2 / MTT assay [3]: 9 fold
